Among the data in publication PMC3795524 are stoichiometry N values, retold here.

Assay [1] deals with KNH1144 SOSIP.IEGR G-MPER gp140 (uncleaved) (HIV-1 KNH1144 (subtype A)). The assay is described as follows: native gel or EMSA. In general terms: Mobility shift assays separate free from complexed probe on a gel.
The target is the same in assay [2]. The assay is described as follows: AUC.
Assay [3] deals with KNH1144 SOSIP.R6 G-MPER gp140 (cleaved) (HIV-1 KNH1144 (subtype A)). In words: native gel or EMSA.
Assay [4] shares this target. In words: AUC.

“KNH1144 SOSIP.IEGR G-MPER gp140 (uncleaved) (domain or fragment)”: the stoichiometry N in assay [1] and in assay [2] was 3 throughout.
For the substance “KNH1144 SOSIP.R6 G-MPER gp140 (cleaved) (complex)”, the stoichiometry N in assay [3] and in assay [4] was 3 in each case.

Broadly, the stoichiometry N is a count of units in the complex or per binding partner.
